Assay results as given in patent US20230133118A1, “COMPOSITIONS AND METHODS FOR TREATING CANCER” (Adagene AG, priority 2020, published 2023).
Values joined by “and” are separate entries in the source; they are usually repeats but may differ in a detail not shown here. Identical values can stand only once. Like-named read-outs stand apart in the source and are kept apart here.

Settings: for Any DLTs: first 2 cycles

ADG106: fully human agonistic anti-CD137 monoclonal IgG4 antibody; heavy chain SEQ ID NO: 10, light chain SEQ ID NO: 11
>=G3 adverse events (0.03 mg/kg N=1): 1 (100) n (%) | Any Drug Related TEAEs (0.03 mg/kg N=1): 1 (100) n (%) | Any SAE (0.03 mg/kg N=1): 0 n (%) | Any TEAEs Leading to Study Drug Discontinuation (0.03 mg/kg N=1): 0 n (%) | Any TEAEs leading to Study Drug Dose Reduction or Interruption (0.03 mg/kg N=1): 1 (100) n (%) | Any TEAEs with Outcome of Death (0.03 mg/kg N=1): 0 n (%) | Drug Related SAE (0.03 mg/kg N=1): 0 n (%) | SAE leading to Drug discontinuation (0.03 mg/kg N=1): 0 n (%) | Any DLTs (0.03 mg/kg N=1): 0 n (%) | >=G3 adverse events (0.1 mg/kg N=2): 0 n (%) | Any Drug Related TEAEs (0.1 mg/kg N=2): 2 (100) n (%) | Any SAE (0.1 mg/kg N=2): 0 n (%) | Any TEAEs Leading to Study Drug Discontinuation (0.1 mg/kg N=2): 0 n (%) | Any TEAEs leading to Study Drug Dose Reduction or Interruption (0.1 mg/kg N=2): 0 n (%) | Any TEAEs with Outcome of Death (0.1 mg/kg N=2): 0 n (%) | Drug Related SAE (0.1 mg/kg N=2): 0 n (%) | SAE leading to Drug discontinuation (0.1 mg/kg N=2): 0 n (%) | Any DLTs (0.1 mg/kg N=2): 0 n (%) | >=G3 adverse events (0.3 mg/kg N=1): 1 (100) n (%) | Any Drug Related TEAEs (0.3 mg/kg N=1): 1 (100) n (%) | Any SAE (0.3 mg/kg N=1): 0 n (%) | Any TEAEs Leading to Study Drug Discontinuation (0.3 mg/kg N=1): 0 n (%) | Any TEAEs leading to Study Drug Dose Reduction or Interruption (0.3 mg/kg N=1): 0 n (%) | Any TEAEs with Outcome of Death (0.3 mg/kg N=1): 0 n (%) | Drug Related SAE (0.3 mg/kg N=1): 0 n (%) | SAE leading to Drug discontinuation (0.3 mg/kg N=1): 0 n (%) | Any DLTs (0.3 mg/kg N=1): 0 n (%) | >=G3 adverse events (0.5 mg/kg N=3): 0 n (%) | Any Drug Related TEAEs (0.5 mg/kg N=3): 2 (67) n (%) | Any SAE (0.5 mg/kg N=3): 0 n (%) | Any TEAEs Leading to Study Drug Discontinuation (0.5 mg/kg N=3): 0 n (%) | Any TEAEs leading to Study Drug Dose Reduction or Interruption (0.5 mg/kg N=3): 0 n (%) | Any TEAEs with Outcome of Death (0.5 mg/kg N=3): 0 n (%) | Drug Related SAE (0.5 mg/kg N=3): 0 n (%) | SAE leading to Drug discontinuation (0.5 mg/kg N=3): 0 n (%) | Any DLTs (0.5 mg/kg N=3): 0 n (%) | >=G3 adverse events (1 mg/kg N=4): 3 (75) n (%) | Any Drug Related TEAEs (1 mg/kg N=4): 4 (100) n (%) | Any SAE (1 mg/kg N=4): 1 (25) n (%) | Any TEAEs Leading to Study Drug Discontinuation (1 mg/kg N=4): 1 (25) n (%) | Any TEAEs leading to Study Drug Dose Reduction or Interruption (1 mg/kg N=4): 0 n (%) | Any TEAEs with Outcome of Death (1 mg/kg N=4): 1 (25) n (%) | Drug Related SAE (1 mg/kg N=4): 0 n (%) | SAE leading to Drug discontinuation (1 mg/kg N=4): 0 n (%) | Any DLTs (1 mg/kg N=4): 0 n (%) | >=G3 adverse events (1.5 mg/kg N=5): 0 n (%) | Any Drug Related TEAEs (1.5 mg/kg N=5): 2 (40) n (%) | Any SAE (1.5 mg/kg N=5): 1 (20) n (%) | Any TEAEs Leading to Study Drug Discontinuation (1.5 mg/kg N=5): 0 n (%) | Any TEAEs leading to Study Drug Dose Reduction or Interruption (1.5 mg/kg N=5): 0 n (%) | Any TEAEs with Outcome of Death (1.5 mg/kg N=5): 0 n (%) | Drug Related SAE (1.5 mg/kg N=5): 0 n (%) | SAE leading to Drug discontinuation (1.5 mg/kg N=5): 0 n (%) | Any DLTs (1.5 mg/kg N=5): 0 n (%) | >=G3 adverse events (3 mg/kg N=12): 4 n (%) | Any Drug Related TEAEs (3 mg/kg N=12): 6 n (%) | Any SAE (3 mg/kg N=12): 3 n (%) | Any TEAEs Leading to Study Drug Discontinuation (3 mg/kg N=12): 1 n (%) | Any TEAEs leading to Study Drug Dose Reduction or Interruption (3 mg/kg N=12): 0 n (%) | Any TEAEs with Outcome of Death (3 mg/kg N=12): 1 n (%) | Drug Related SAE (3 mg/kg N=12): 0 n (%) | SAE leading to Drug discontinuation (3 mg/kg N=12): 0 n (%) | Any DLTs (3 mg/kg N=12): 0 n (%) | >=G3 adverse events (5 mg/kg N=7): 2 (39) n (%) | Any Drug Related TEAEs (5 mg/kg N=7): 4 (57) n (%) | Any SAE (5 mg/kg N=7): 3 (43) n (%) | Any TEAEs Leading to Study Drug Discontinuation (5 mg/kg N=7): 1 (14) n (%) | Any TEAEs leading to Study Drug Dose Reduction or Interruption (5 mg/kg N=7): 0 n (%) | Any TEAEs with Outcome of Death (5 mg/kg N=7): 0 n (%) | Drug Related SAE (5 mg/kg N=7): 2 (29) n (%) | SAE leading to Drug discontinuation (5 mg/kg N=7): 1 (14) n (%) | Any DLTs (5 mg/kg N=7): 1 n (%) and 1 (14) n (%) | >=G3 adverse events (10 mg/kg N=5): 4 (80) n (%) | Any Drug Related TEAEs (10 mg/kg N=5): 4 (80) n (%) | Any SAE (10 mg/kg N=5): 2 (40) n (%) | Any TEAEs Leading to Study Drug Discontinuation (10 mg/kg N=5): 2 (40) n (%) | Any TEAEs leading to Study Drug Dose Reduction or Interruption (10 mg/kg N=5): 0 n (%) | Any TEAEs with Outcome of Death (10 mg/kg N=5): 0 n (%) | Drug Related SAE (10 mg/kg N=5): 2 (40) n (%) | SAE leading to Drug discontinuation (10 mg/kg N=5): 2 (40) n (%) | SAEs related to the study treatment (China update): 7 | DLT observed (China update Nov. 30, 2020, 18 dose escalation patients, Grade 4 neutrophil count decreased at 10 mg/kg): 1 | TEAE C-reactive protein increase (China update, 57 patients): 35% | TEAE anemia (China update, 57 patients): 46% | TEAE aspartate aminotransferase increase (China update, 57 patients): 32% | TEAE asthenia (China update, 57 patients): 30% | TEAE blood present in urine (China update, 57 patients): 21% | TEAE constipation (China update, 57 patients): 25% | TEAE cough (China update, 57 patients): 23% | TEAE hypoalbuminaemia (China update, 57 patients): 30% | TEAE hypochloraemia (China update, 57 patients): 23% | TEAE hyponatraemia (China update, 57 patients): 30% | TEAE platelet count increase (China update, 57 patients): 21% | TEAE proteinuria (China update, 57 patients): 39% | TEAE pruritus (China update, 57 patients): 21% | TEAE rash (China update, 57 patients): 25% | TEAE white blood cell count decrease (China update, 57 patients): 26%
